Key:
Assay in all cases: cross-linking
[1] = molecular target: VcINDY K316C (dimer interface cysteine mutant in the cysteine-free background) (Vibrio cholerae) (UniProt Q9KNE0)
[2] = molecular target: VcINDY N90C (dimer interface cysteine mutant in the cysteine-free background) (Vibrio cholerae) (UniProt Q9KNE0)
[3] = molecular target: VcINDY Q86C S95C (dimer interface cysteine mutant in the cysteine-free background) (Vibrio cholerae) (UniProt Q9KNE0)
[4] = molecular target: VcINDY V68C S304C (dimer interface cysteine mutant in the cysteine-free background) (Vibrio cholerae) (UniProt Q9KNE0)

Substance: VcINDY K316C (dimer interface cysteine mutant in the cysteine-free background) (from UniProt Q9KNE0 14-462) (natural protein)
- stoichiometry N [1]: 2

Substance: VcINDY N90C (dimer interface cysteine mutant in the cysteine-free background) (from UniProt Q9KNE0 14-462) (natural protein)
- stoichiometry N [2]: 2

Substance: VcINDY Q86C S95C (dimer interface cysteine mutant in the cysteine-free background) (from UniProt Q9KNE0 14-462) (natural protein)
- stoichiometry N [3]: 2

Substance: VcINDY V68C S304C (dimer interface cysteine mutant in the cysteine-free background) (from UniProt Q9KNE0 14-462) (natural protein)
- stoichiometry N [4]: 2
